Experimental data: patent publication US5981483A, “Compositions comprising modulators of cytokines of the TGF-β superfamily” (Mount Sinai Hospital Corporation, priority 1997, dated 1999)
pIC50, pKd: −log10 of the molar value.

What was measured:
[1] = tested on: Mv1Lu cells; assay: 3H-Thymidine incorporation in Mv1Lu cells: proliferation / growth; type: cell-based, mink; conditions: absence of cytokines, FIG. 12; read-out: IC50, stimulated proliferation of Mv1Lu cells
Protocol: Mv1Lu cells were seeded at 20,000 cells/well in a 96 well plate containing 0.2% FCS in α-MEM and incubated with the indicated concentrations of proteins for 18 hr. The cells were then pulsed with 8 μCi/ml methyl-^3 H-thymidine (NEN, Boston, Mass.) for 6 hr. Cells were trypsinized, harvested onto filtermats and counted in a β-Counter. Percent neutralization is defined as incorporation in the presence of 12 pM TGF-β1 alone set at 0%, and incorporation without additions as 100%.

[2] = target: T1, BMP-2 (Homo sapiens, UniProt P12643); assay: BIAcore surface plasmon resonance, binding to immobilized BMP-2; conditions: ligand BMP-2
T1 construct: Genetics Institute, Cambridge, Mass; (gift)
T1 sequence (P12643 283-396): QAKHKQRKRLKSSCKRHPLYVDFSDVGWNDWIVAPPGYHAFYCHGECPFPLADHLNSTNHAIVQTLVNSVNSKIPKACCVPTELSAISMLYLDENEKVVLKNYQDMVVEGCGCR
Protocol: In this system, a purified protein serving as the ligand is covalently coupled to a carboxymethylated dextran surface, and binding molecules (i.e. the analyte) are passed in a fluid phase across the surface. Binding of the analyte to ligand causes a change in reflected light which is directly proportional to mass bound, and is measured in arbitrary response units (R.U.). Analyte-ligand binding is observed as both increasing response with time during the injection of analyte, and the difference in the position of the baseline before and after injection.
Schuster, R. V. Swanson, L. A. Alex, R. B. Bourret, M. I. Simon, Nature 365, 343 (1993). 1000 R.U. equals approximately 1 ng/mm^2. The running buffer was 20 mM Hepes (pH 7.2), 150 mM NaCl and the flow rate for all sensorgrams was 3 μl/min.
Regeneration of the surface to remove bound analyte was done by injection of 10 μl of 20 mM NaOH. To cyclize TRH1 peptides, the material was reduced with 5 mM DTT then brought to a final concentration of 60 μM in 25 mM ammonium acetate (pH 8.5). After stirring in the dark for 30 min at 20° C. with 30 mM potassium ferricyanide, the peptide was mixed with AG3-X4A resin (BioRad), filtered, lyophilization and desalted on a 50×2.5 cm column of Biogel P2 (Pharmacia) developed in water, and further purified by reverse phase HPLC.
Injection volumes were 36 μl for FIG. 2, 4 and 5 and 45 μl for FIG. 3. […] Protein concentrations in each experiment were (FIGS. 2 and 3), 2, 5, 10, 20, 30, 40 μM; (FIG. 4), 0.21, 0.31, 0.41, 0.62, 0.82, 1.24 μM; (FIG. 5), 0.22, 0.29, 0.44, 0.59, 0.88 μM. R.U. for the immobilized cytokine in each experiment was 2850 R.U. for FIGS. 2 and 3; 7450 R.U. for FIG. 4, and 5300 R.U., for FIG. 5 respectively.
Data was analyzed using the BIA-evaluation software (Pharmacia Biosensor). The association rate constant, kass, was calculated by first plotting the change in response with time versus response (i.e. dR/dT vs R). When the slope of the line from this graph is plotted versus analyte concentration (i.e d(dR/dT)/dR vs C), kass is obtained from the slope of the line. The dissociation rate constant, kdiss, is obtained during the decrease in response with time after analyte injection is discontinued. Specifically, kdiss was obtained from the slope of the line in a plot of ln(Rt1 /Rtn) vs time. The affinity constants were calculated from KD =kdiss /kass. Variance for kass is standard error of the linear regression plot, and for kdiss values are the mean ± range of 3 or more independent injections.

[3] = tested on: rat bone marrow stromal cells; assay: Dexamethasone-treated rat bone marrow stromal cell cultures (proliferation, mineralization, TGF-β levels); type: cell-based
Protocol: The methods used in the studies described in this example and illustrated in FIGS. 16 and 17 are as follows. Femoral bones were removed under aseptic conditions from adult male Wistar rats (120 g), cleaned of adherent soft tissues, and washed extensively in antibiotics. The distal ends were removed and the marrow contents were flushed out with 10 ml of culture medium. The cells were dispersed by repeated passage through a 20 gauge needle and incubated in alpha-MEM supplemented with 15% fetal bovine serum, ascorbic acid (50 μg/ml), antibiotics (penicillin G 100 μg/ml, gentamicin 50 μg/ml, fungizone 0.3 μg/ml) and 10 mM β-glycerophosphate. […] Following 6 days of culture at 37° C. in a humidified atmosphere containing 5% CO2 in air, the cells were re-plated at a density of 1×10^2 cell/mm^2 in 96 multi-well plates (Falcon 3047), and grown for another 12-14 days. At the end of culture, the cells were fixed and stained for calcium with alizarin red-s for quantification of bone nodule area (reported as mineralized area (mm^2)/well). To assess mineralized tissue formation in the cultures morphometric measurements were carried out with the aid of a Bioquant IV system (Bioquant, Nashville, Tenn., U.S.A.) using a Leitz Orthoplan microscope. TGF-β in culture supernatants taken 4 days prior to scoring mineralization were measured with and without heat activation (80° C. for 10 min) using the Mink cells as the indicator cell line as described in FIG. 12.

[4] = Table 2 (calculations repeated)

Substance: Fetuin: Bovine fetal fetuin, glycoprotein obtained by ammonium sulfate fractionation of FCS and gel filtration (Sigma)
- pIC50 [1]: 5.10
- kass ([2]; Table 1): 1700 ± 300 M⁻¹ s⁻¹
- kass ([2]; Table 1, listed as fetuin): 1700 M⁻¹ s⁻¹
- kdiss ([2]; Table 1, listed as fetuin): 6.2e-05 s⁻¹
- kass [2, 4]: 2400 ± 1200 M⁻¹ s⁻¹
- kdiss [2, 4]: 6.5e-05 s⁻¹
- pKd ([2]; Table 2 (calculations repeated), KD = kdiss/kass): 7.57
- BMP-2 induced osteogenesis in the cultures ([3]; data not shown): could be blocked
- deposition of calcium-containing matrix ([3]; dexamethasone-treated bone marrow cultures, latter two weeks, FIGS. 16 and 18): inhibited deposition of calcium-containing matrix
- cell number during the first week of culture (proliferative phase) ([3]; dexamethasone-treated, FIG. 15): stimulated an increase in cell number
